Reference: paper PMC5663926, “In vivo near-infrared imaging of ErbB2 expressing breast tumors with dual-axes confocal endomicroscopy using a targeted peptide” (Scientific Reports, 2017)
Where two headings read alike, the source gives them in different places. Residues, ends and D or L forms follow the SMILES beside them. *: point of attachment. X1 = CC1(C)C(/C=C/C2=C(Oc3ccc(S(=O)(=O)O)cc3)C(=C/C=C3/N(CCCCS(=O)(=O)[O-])c4ccc(S(=O)(=O)O)cc4C3(C)C)/CCC2)=[N+](CCCCCC(=O)NCCN2C(=O)CC(*)C2=O)c2ccc(S(=O)(=O)O)cc21

Key:
[1] = tested on: BT474 and MDA-MB-231 human xenograft breast tumors in nude mice; assay: In vivo photoacoustic imaging of peptide uptake in xenograft breast tumors; set-up: species or system nude mouse
Method: (§1) BT474 cells were diluted in growth factor reduced (GFR) Matrigel Matrix (Corning), and injected into one flank of female nude athymic mice (002019 Foxn1 , Jackson Laboratory) at 4–6 weeks of age with weight between 20–25 grams. A 0.18 mg 17-β-Estradiol pellet (#SE-121, Innovative Research of America) with 60 day release form was placed subcutaneously around the neck 1 day prior to tumor implantation to stimulate tumor growth. ∼1 × 10^7 cells were implanted for each tumor, and 2–3 implantations were performed in each mouse. MDA-MB-231 tumors were generated similarly except without Matrigel Matrix injection and only one implantation was performed in each mouse. Tumor size was monitored by ultrasound and MRI weekly. For all in vivo animal experiments, anesthesia was induced and maintained with inhaled isoflurane mixed with oxygen at a concentration of 2–4% at a flow rate of ~0.5 L/min via a nose cone.
(§2) We used photoacoustic tomography (Nexus128, Endra Inc) to measure peptide uptake by the human xenograft breast tumors. This system provides laser excitation with 7 ns pulses, 25 mJ/pulse, […] repetition rate, and tunable wavelength from 680 nm to 950 nm. The acoustic signal was collected with 128 unfocused (3 mm diameter) ultrasound transducers with 5 MHz center frequency assembled in a hemispherical bowl in a helical pattern. Water was added to the bowl to transmit the acoustic signal. We collected photoacoustic images with 120 views at 60 pulses/view. Each image covered a volume of 25 × 25 × 25 mm^3 with a voxel size of 280 μm^3, and each dataset required ~6–7 min for acquisition.
(§3) For imaging, the animals were placed inside a tray with the tumor positioned inside a water-filled dimple that couples the ultrasound signal. KSP*-IR800 was injected via tail vein at a concentration of 300 μM in a volume of 250 μL. Photoacoustic images were acquired at 0, 1, 2, 3, 6, 12, and 24 hours post-injection using λex = 780 nm excitation. PPS*-IR800 was administered in the same animal 48 hours later for control after the target peptide cleared as defined by T/B ratio returning to ∼1. IRDye800 (fluorophore without peptide) at the same concentration was also administered for control.
(§4) After completion of imaging, 3D images were reconstructed using data acquired from all 128 transducers at each view using a back-projection algorithm to correct for variations in laser intensity from pulse-to-pulse and small changes in temperature that affect the velocity of acoustic waves in water. The reconstructed raw data was analyzed using Osirix 6.5.2 software (Pixmeo) to generate a maximum intensity projection (MIP) image. To calculate the T/B ratio, the mean photoacoustic signal was measured from the tumor (target) using a circular ROI function on 2D MIP images. For background, we used the same ROI as that for the tumor prior to injection of peptide. The adjacent annulus with same area was used measure the background.

[2] = Sprague-Dawley rats; cited from earlier work
From the text: We validated specific binding of this peptide labeled with IRDye800CW to ErbB2 using siRNA knockdown and competition with cells in vitro and with immunohistochemistry and immunofluorescence studies on tissue specimens using known monoclonal anti-ErbB2 antibodies. Also, we have previously used peptides labeled with fluorescein isothiocyanate (FITC) in human clinical studies in hollow organs[25],[26]. We used IRDye800CW to image breast can ...

[3] = tested on: tumor and internal organs of tumor-bearing mouse; assay: Peptide biodistribution ex vivo; assay type: in vivo; settings: n = 5 mice
From the text: (§5) High peptide uptake seen from the kidneys is consistent with renal clearance.
Figure 5 Peptide biodistribution. […] Strong signal from kidneys support renal clearance. (C) Quantified fluorescence intensities are shown for tumor and other organs from n = 5 mice. We fit a two-way ANOVA model to log-transformed data with terms for 11 tissues and 5 mice and tested each tissue mean against the mean for tumors. Kidney had 1.7 times more intense signals on average (P = 0.03), while all other tissues had at least 2-fold lower signals than tumor on average (P = 0.008 for lung was the largest P-value).

[4] = Histology (H&E) for acute toxicity; assay type: in vivo, mouse; settings: mice euthanized after imaging; KSP*-IR800 by tail vein
From the text: as §5

[5] = In vivo photoacoustic imaging of peptide uptake in xenograft breast tumors; set-up: species or system human xenograft, nude mouse; settings: female, nude athymic (002019 Foxn1 <nu>), mouse, in vivo, iv, 75 nmol per mouse, BT474 and MDA-MB-231 tumors, tail vein, 300 μM in 250 μL
Method: as §1, §2, §3, §4

Row | SMILES | time of peak signal ([1]; IRDye800 without peptide, same concentration, post-injection) [h] | photoacoustic tumor signal of fluorophore alone ([1]; IRDye800 without peptide, same concentration, qualitative) | intravenous dose up to which safety was published [2] | kidney signal relative to tumor (times more intense) ([3]; 1 hour after injection, two-way ANOVA, P = 0.03) [times] | signal in all other tissues than kidney, fold lower than tumor ([3]; liver, heart, stomach, brain, lung, spleen, small intestine, cecum, colon, 1 hour after injection, largest P = 0.008 (lung)) | fluorescence intensity from tumor compared with other organs ([3]; qualitative) | acute toxicity on histology (H&E) [4] | time of rapid tumor uptake ([1]; photoacoustic tomography, systemic administration, nude mice (Discussion)) [h] | T/B ratio at ∼24 hours (clearance) ([1]; ∼24 hours post-injection, tail vein, 300 μM in 250 μL) | time after injection ([5]; read-out: time to return to baseline levels (T/B ratio)) | time after injection ([5]; λex = 780 nm, read-out: time of peak peptide uptake (T/B ratio))
1 | CC1(C)C(/C=C/C2=C(Oc3ccc(S(=O)(=O)O)cc3)C(=C/C=C3/N(CCCCS(=O)(=O)O)c4ccc(S(=O)(=O)[O-])cc4C3(C)C)/CCC2)=[N+](CCCCCC(=O)O)c2ccc(S(=O)(=O)O)cc21 [IRDye800, reference compound] | 2 | significantly lower signal | up to 20 mg/kg | – | – | – | – | – | – | – | –
2 | CC1(C)C(/C=C/C2=C(Oc3ccc(S(=O)(=O)O)cc3)C(=C/C=C3/N(CCCCS(=O)(=O)[O-])c4ccc(S(=O)(=O)O)cc4C3(C)C)/CCC2)=[N+](CCCCCC(=O)NCCN2C(=O)CC(SC[C@H](NC(=O)[C@H](CO)NC(=O)CNC(=O)CNC(=O)CNC(=O)[C@H](Cc3ccccc3)NC(=O)[C@H](CCCNC(=N)N)NC(=O)[C@@H]3CCCN3C(=O)[C@H](CC(N)=O)NC(=O)[C@@H]3CCCN3C(=O)[C@H](CO)NC(=O)[C@@H](N)CCCCN)C(N)=O)C2=O)c2ccc(S(=O)(=O)O)cc21 (some centres unmarked) [KSP*-IR800] (H-KSPNPRFGGGSC(X1)-NH2) | – | – | – | 1.7 | at least 2 fold | significantly greater fluorescence intensity from the tumor | no acute toxicity | ~1 | ~1 | ~24 | 1
